Source: the Human Domainome abundance scans (Beltran et al. 2025)
± gives the uncertainty stated by the source.

B1: POU domain, class 4, transcription factor 1, residues 266 to 347; numbered along this chain, Q01851 (parent)
chain: RELEAFAERFKQRRIKLGVTQADVGSALANLKIPGVGSLSQSTICRFESLTLSHNNMIALKPILQAWLEEAEGAQREKMNKP

Variants of: B1
Assay: abundance fitness (aPCA) (normalised: wild type 0, dead -1); higher = more abundant; growth selection in yeast, the domain comes from the species named
Conditions: Homo sapiens

Abundance fitness: each site, then its substitutions
G35: D -0.142 ± 0.24; L -0.303 ± 0.19; I 0.268 ± 0.49; A -0.397 ± 0.26; S -0.29 ± 0.23; F 0.122 ± 0.37; W -0.326 ± 0.28; T 0.07 ± 0.19; R -0.056 ± 0.12; M -0.175 ± 0.22
P34: M -0.163 ± 0.041; E 0.027 ± 0.033; A 0 ± 0.029; L -0.186 ± 0.036; H -0.167 ± 0.063; N -0.133 ± 0.063; T -0.011 ± 0.039; K -0.065 ± 0.043; F -0.097 ± 0.065; Q -0.027 ± 0.039; W -0.322 ± 0.041; I -0.197 ± 0.066; G -0.088 ± 0.024; Y -0.387 ± 0.082
A27: Y -0.041 ± 0.19; F -0.284 ± 0.16; I -0.245 ± 0.17; L -0.288 ± 0.06; Q -0.046 ± 0.058; D -0.043 ± 0.081; N -0.071 ± 0.12; P -1.23 ± 0.27; S -0.023 ± 0.058; T -0.069 ± 0.07; K -0.058 ± 0.062; M -0.175 ± 0.11; G -0.153 ± 0.038; R -0.081 ± 0.036; C 0.01 ± 0.076; H -0.07 ± 0.12; E -0.035 ± 0.049; V -0.16 ± 0.04; W -0.088 ± 0.04
I15: Y -0.332 ± 0.046; H -0.083 ± 0.037; V -0.023 ± 0.035; L -0.022 ± 0.028; Q -0.013 ± 0.038; S -0.138 ± 0.029; P -0.989 ± 0.084; N -0.113 ± 0.04; R -0.037 ± 0.036; M 0.005 ± 0.038; W -0.243 ± 0.048
A29: L -0.092 ± 0.13; K 0.02 ± 0.14; G 0.132 ± 0.1; R 0.083 ± 0.087; I -0.019 ± 0.13; V 0.088 ± 0.35; P -0.184 ± 0.16; C 0.128 ± 0.36; W -0.605 ± 0.5; E 0.036 ± 0.11
V36: G -0.142 ± 0.11; E -0.125 ± 0.086; M -0.189 ± 0.22; Q -0.252 ± 0.17; S -0.096 ± 0.24; L 0.003 ± 0.12; C -0.225 ± 0.18; I 0.013 ± 0.13; R -0.214 ± 0.062; K -0.138 ± 0.14; T 0.24 ± 0.15; Y -0.257 ± 0.38; D -0.463 ± 0.42; N -0.327 ± 0.19
D23: F -0.208 ± 0.12; Y -0.115 ± 0.094; T -0.118 ± 0.066; Q 0.016 ± 0.063; A -0.009 ± 0.066; H -0.156 ± 0.1; S -0.027 ± 0.049; P -0.913 ± 0.44; N -0.067 ± 0.14; E 0.027 ± 0.048; M -0.022 ± 0.1; G -0.067 ± 0.045; W -0.405 ± 0.098; R -0.173 ± 0.049; C -0.185 ± 0.098; L -0.281 ± 0.06; V -0.152 ± 0.05
G25: H 0.122 ± 0.16; S 0.001 ± 0.047; A 0.04 ± 0.047; N -0.117 ± 0.17; W -0.007 ± 0.055; T -0.012 ± 0.076; M -0.009 ± 0.07; L -0.038 ± 0.048; Q -0.001 ± 0.065; Y -0.058 ± 0.087; E 0.05 ± 0.054; K 0.009 ± 0.083; D 0.037 ± 0.093; V 0.068 ± 0.04; C 0.025 ± 0.066; F -0.119 ± 0.14
S26: P -0.221 ± 0.081; H -0.005 ± 0.13; F -0.008 ± 0.078; M -0.049 ± 0.082; D 0.057 ± 0.068; T -0.095 ± 0.06; Y 0.126 ± 0.1; K -0.029 ± 0.062; C -0.03 ± 0.064; L -0.016 ± 0.05; A 0.011 ± 0.045; Q 0.086 ± 0.087; G -0.032 ± 0.039; W 0.024 ± 0.055; R -0.004 ± 0.039; V -0.049 ± 0.044; N 0.285 ± 0.2
A22: V -0.242 ± 0.095; I -0.218 ± 0.24; H 0.01 ± 0.14; Y 0.043 ± 0.12; N 0.11 ± 0.33; E 0.043 ± 0.098; G -0.017 ± 0.056; W -0.038 ± 0.084; P 0.13 ± 0.28; M -0.237 ± 0.16; C -0.098 ± 0.27; D -0.121 ± 0.15; T -0.068 ± 0.1
Q21: T -0.072 ± 0.055; Y -0.07 ± 0.1; I 0.022 ± 0.075; C -0.083 ± 0.064; F -0.072 ± 0.24; H 0.006 ± 0.1; E -0.023 ± 0.049; V -0.083 ± 0.046; S -0.09 ± 0.058; A -0.044 ± 0.046; R -0.058 ± 0.041; N -0.516 ± 0.38; P -0.045 ± 0.065; K 0.062 ± 0.092; M -0.111 ± 0.072; W -0.141 ± 0.063
L17: G -0.802 ± 0.082; R -0.664 ± 0.046; I -0.126 ± 0.045; P -1.06 ± 0.08; Y -0.33 ± 0.038; V -0.286 ± 0.036; S -0.608 ± 0.035; C -0.31 ± 0.041; H -0.54 ± 0.047; F -0.309 ± 0.039; W -0.336 ± 0.044; N -0.455 ± 0.05; A -0.346 ± 0.038; E -0.804 ± 0.075; T -0.779 ± 0.058; Q -0.668 ± 0.052; K -0.62 ± 0.052; M -0.072 ± 0.037
G37: L -0.121 ± 0.03; C -0.058 ± 0.047; M -0.134 ± 0.037; I -0.116 ± 0.063; H -0.05 ± 0.066; F -0.149 ± 0.045; E 0.015 ± 0.032; K -0.074 ± 0.041; A -0.045 ± 0.028; D -0.092 ± 0.052
N30: Q 0.026 ± 0.071; T -0.046 ± 0.077; V -0.233 ± 0.061; H 0.054 ± 0.15; K 0.113 ± 0.088; E -0.043 ± 0.072; C -0.337 ± 0.17; Y 0.033 ± 0.34; M -0.104 ± 0.09; F 0.037 ± 0.13; G -0.009 ± 0.041; L -0.084 ± 0.088; W -0.144 ± 0.064; R -0.063 ± 0.054; I 0.054 ± 0.13; A 0.028 ± 0.059; S 0.091 ± 0.08; P 0.06 ± 0.1
I33: H -0.147 ± 0.06; R -0.217 ± 0.026; K -0.203 ± 0.042; G -0.282 ± 0.025; N -0.219 ± 0.052; L 0.024 ± 0.028; A -0.139 ± 0.03; Q -0.295 ± 0.04; D -0.262 ± 0.054; M -0.056 ± 0.036; C -0.005 ± 0.039; Y -0.21 ± 0.053; W -0.114 ± 0.03; S -0.23 ± 0.034; F -0.091 ± 0.048; T -0.145 ± 0.039; E -0.22 ± 0.033; V 0.05 ± 0.027
V19: E -0.396 ± 0.081; M 0.096 ± 0.067; W -0.016 ± 0.057; T -0.125 ± 0.068; Q 0.11 ± 0.076; I -0.012 ± 0.078; S -0.062 ± 0.062; Y -0.027 ± 0.086; C -0.104 ± 0.1; D -0.308 ± 0.14; P -0.827 ± 0.25; R -0.019 ± 0.037; H -0.14 ± 0.11; L -0.016 ± 0.049; G -0.55 ± 0.061; K 0.003 ± 0.061
T20: A -0.052 ± 0.14; L -0.078 ± 0.19; C 0.008 ± 0.36; I -0.725 ± 0.21; N -0.261 ± 0.44; R -0.087 ± 0.1; E -0.124 ± 0.094; S -0.117 ± 0.19; V -0.567 ± 0.28
L31: S -0.066 ± 0.031; A -0.059 ± 0.029; P -0.26 ± 0.045; V -0.006 ± 0.025; Q -0.04 ± 0.038; H -0.014 ± 0.058; K 0.038 ± 0.039; G -0.223 ± 0.024; N -0.168 ± 0.061; R -0.005 ± 0.024; T 0.051 ± 0.035; I -0.028 ± 0.052; M 0.003 ± 0.035; D -0.152 ± 0.046; C -0.057 ± 0.037
V24: S -0.688 ± 0.1; T -0.544 ± 0.096; L -0.062 ± 0.049; F -0.337 ± 0.14; H -0.815 ± 0.37; R -0.745 ± 0.074; D -0.66 ± 0.16; N -0.531 ± 0.27; A -0.241 ± 0.055; E -0.679 ± 0.088; M -0.253 ± 0.079; C -0.326 ± 0.1; P -1.06 ± 0.23
K16: N 0.011 ± 0.035; A 0.085 ± 0.034; F -0.138 ± 0.039; Q 0.027 ± 0.032; R 0.035 ± 0.034; T -0.032 ± 0.028; I -0.104 ± 0.037; E 0.063 ± 0.048; W -0.177 ± 0.05; C -0.004 ± 0.055; S 0.013 ± 0.027; H -0.029 ± 0.034; P -0.888 ± 0.053; L -0.071 ± 0.025; D 0.029 ± 0.049; Y -0.129 ± 0.037
L28: H -0.332 ± 0.061; F -0.129 ± 0.045; A -0.422 ± 0.032; Q -0.628 ± 0.052; E -0.782 ± 0.048; D -0.624 ± 0.065; N -0.459 ± 0.071; K -0.601 ± 0.047; W -0.555 ± 0.033; S -0.639 ± 0.043; T -0.312 ± 0.042; Y -0.439 ± 0.066; V -0.074 ± 0.025; C -0.042 ± 0.039; M -0.09 ± 0.037
G18: M -0.639 ± 0.48; R -0.231 ± 0.15; A -0.268 ± 0.17; K -0.167 ± 0.21; L -0.724 ± 0.46; E -0.332 ± 0.13; S -0.241 ± 0.1; C -0.475 ± 0.32; D -0.394 ± 0.12; F -0.663 ± 0.32; T -0.91 ± 0.49
K32: T 0.025 ± 0.076; S 0.106 ± 0.096; E 0.016 ± 0.13; P -0.204 ± 0.13; L -0.105 ± 0.064; I -0.165 ± 0.21; V -0.009 ± 0.059; M 0.018 ± 0.089; D 0.022 ± 0.17; C -0.116 ± 0.094; G -0.101 ± 0.054; A -0.003 ± 0.078; F 0.031 ± 0.26; W -0.176 ± 0.071; Y -0.281 ± 0.14; N -0.076 ± 0.27; R -0.058 ± 0.054; Q -0.022 ± 0.11
